According to US20170158755A1 (PROTHENA BIOSCIENCES, published 2017):

Columns and labels:
[1] = molecular target: T1, human His-laminin-α4 (human, UniProt Q16363 833-1823, limits assumed); assay: Biacore SPR
T1 construct: Bought His-tagged recombinant protein (R & D Systems); also called Human LAMA4; human His-laminin-α4 (R & D Systems)
T1 sequence: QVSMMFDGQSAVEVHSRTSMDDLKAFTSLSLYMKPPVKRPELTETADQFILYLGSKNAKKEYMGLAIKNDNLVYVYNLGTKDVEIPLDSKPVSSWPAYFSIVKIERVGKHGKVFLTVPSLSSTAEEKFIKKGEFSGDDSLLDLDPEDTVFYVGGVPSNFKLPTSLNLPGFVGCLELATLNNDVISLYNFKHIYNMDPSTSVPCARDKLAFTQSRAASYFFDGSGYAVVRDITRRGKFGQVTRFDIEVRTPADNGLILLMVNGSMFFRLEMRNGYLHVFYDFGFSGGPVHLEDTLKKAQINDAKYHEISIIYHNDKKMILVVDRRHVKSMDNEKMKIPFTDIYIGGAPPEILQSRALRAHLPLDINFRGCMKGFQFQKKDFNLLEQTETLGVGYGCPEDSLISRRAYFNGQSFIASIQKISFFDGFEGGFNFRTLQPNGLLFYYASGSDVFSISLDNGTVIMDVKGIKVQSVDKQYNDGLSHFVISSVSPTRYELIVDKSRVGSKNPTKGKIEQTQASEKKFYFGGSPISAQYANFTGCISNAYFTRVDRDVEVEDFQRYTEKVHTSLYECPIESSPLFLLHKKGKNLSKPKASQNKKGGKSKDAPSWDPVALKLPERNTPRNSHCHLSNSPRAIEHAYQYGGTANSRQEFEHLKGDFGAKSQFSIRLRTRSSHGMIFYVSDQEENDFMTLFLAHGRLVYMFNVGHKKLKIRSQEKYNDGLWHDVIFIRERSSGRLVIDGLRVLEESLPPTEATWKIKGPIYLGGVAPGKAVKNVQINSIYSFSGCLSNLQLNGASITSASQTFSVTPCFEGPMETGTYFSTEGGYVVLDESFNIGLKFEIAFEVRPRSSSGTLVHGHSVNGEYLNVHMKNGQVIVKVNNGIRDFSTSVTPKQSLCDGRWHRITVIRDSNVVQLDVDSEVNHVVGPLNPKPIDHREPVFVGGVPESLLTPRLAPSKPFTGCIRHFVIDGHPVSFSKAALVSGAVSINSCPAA

[2] = molecular target: T2, mouse His-laminin-α4 (mouse, UniProt P97927 826-1816, limits assumed); assay: Biacore SPR
T2 construct: Bought His-tagged recombinant protein; also called Murine LAMA4; recombinant mouse LAMA4-His
T2 sequence (looked up): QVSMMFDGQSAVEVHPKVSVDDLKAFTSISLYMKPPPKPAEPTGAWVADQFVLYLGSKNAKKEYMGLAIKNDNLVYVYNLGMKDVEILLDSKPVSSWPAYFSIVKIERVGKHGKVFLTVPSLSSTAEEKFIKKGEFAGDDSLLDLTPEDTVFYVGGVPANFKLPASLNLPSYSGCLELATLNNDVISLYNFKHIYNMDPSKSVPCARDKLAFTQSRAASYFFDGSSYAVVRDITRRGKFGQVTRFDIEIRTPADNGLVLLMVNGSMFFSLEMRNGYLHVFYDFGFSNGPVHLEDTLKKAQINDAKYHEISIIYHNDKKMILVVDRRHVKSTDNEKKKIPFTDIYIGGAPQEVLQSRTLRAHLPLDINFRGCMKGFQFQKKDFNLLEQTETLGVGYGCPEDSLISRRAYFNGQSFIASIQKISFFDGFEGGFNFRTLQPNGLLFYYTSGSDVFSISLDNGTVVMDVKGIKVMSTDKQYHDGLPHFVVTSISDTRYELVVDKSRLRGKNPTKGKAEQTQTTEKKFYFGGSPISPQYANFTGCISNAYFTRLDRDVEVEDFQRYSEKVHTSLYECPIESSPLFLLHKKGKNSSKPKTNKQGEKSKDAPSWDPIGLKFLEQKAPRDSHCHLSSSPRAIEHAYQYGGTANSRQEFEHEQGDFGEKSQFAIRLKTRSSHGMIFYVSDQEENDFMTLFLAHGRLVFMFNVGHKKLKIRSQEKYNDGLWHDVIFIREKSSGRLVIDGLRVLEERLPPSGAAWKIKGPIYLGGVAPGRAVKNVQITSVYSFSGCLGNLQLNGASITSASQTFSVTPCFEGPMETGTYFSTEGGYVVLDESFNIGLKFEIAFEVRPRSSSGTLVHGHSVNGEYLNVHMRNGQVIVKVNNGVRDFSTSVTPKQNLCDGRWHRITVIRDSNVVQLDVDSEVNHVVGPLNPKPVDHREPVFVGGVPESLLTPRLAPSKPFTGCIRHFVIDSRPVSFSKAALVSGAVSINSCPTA

| Kd [1] | koff [1] | kon [1] | Kd [2] | koff [2] | kon [2] | Binder |
| --- | --- | --- | --- | --- | --- | --- |
| 13.3 nM | 0.00917 s⁻¹ | 610000 M⁻¹ s⁻¹ | 16.1 nM | 0.00947 s⁻¹ | 590000 M⁻¹ s⁻¹ | mouse monoclonal antibody 1C1 (antibody, V domains shown, version 1 is written here) VH: QVQLQQSGAELARPGASVKLSCKASGYTFTNYGISWVKQRTGQGLEWIGAIYPRSGNTYYNEKFKGKATLTADKSSSTAYMELRSLTSEDSAVYFCARERDYGSSYALDYWGQGTSVTVSS VL: DIVMTQSQKFMSTSVGDRVSVTCKASHNVGTNVAWYQQKPGQSPKPLIYSASYRYSGVPDRFTGSGSGTDFTLTISNVQSEDLADYFCQQFNNYPYTFGGGTKLEIKR |
| 1.27 nM | 0.00858 s⁻¹ | 6.72e+06 M⁻¹ s⁻¹ | 0.965 nM | 0.0061 s⁻¹ | 6.32e+06 M⁻¹ s⁻¹ | mouse monoclonal antibody 19C12 (antibody, V domains shown, Mouse hybridoma antibody; Mouse IgG2b was used as its isotype control; also called m19C12) VH: QVQLQQSGAELVKPGASVKISCKASGYAFSTYWMNWVKQRPGEGLEWIGQIYPGDGDTNYNGKFKGKATLTADKSSSTAYMQLSSLTSEDSAVYFCARSDGYYDYWGQGTTLTVSS VL: NIVLTQSPASLAVSLGQRATISCRASESVDSYGTSFMHWYQQKPGQPPKLLICLASSLESGVPARFSGSGSRTDFTLTIDPVEADDAATYYCQQNNEDPPTFGAGTKLELKR |
